Test results reported in the supplement of paper PMC6755084.

B1: minF1; a variant is named by its letters at N, in order (parent)
chain: GAGACCGCAACTGAAAAGTTGTTNNNNAANNNNGGNTNNATTTCTGCACGTAGAAGCAAAAGGC
B2: minF1; the commonest letter at each place (parent)
chain: GAGACCGCAACTGAAAAGTTGTTATCAGAAATGGATGGGTTGAATTTCTGCACGTAGAAGCAAAAGGC

Variants of: B1
Assay: fraction ligated after 30 min (ligated reads / total reads); higher = more ligase activity
Settings: with F1*subA RNA substrate (template-directed ligation), 42 °C
Description: (§1)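 Chip-synthesised pool of minF1 ligase ribozyme variants (single and double substitutions, single to quadruple deletions, bulge and P2 designed variants) was transcribed with T7 and reacted as a pool with excess substrate F1*subA for 30 min at 42 C in 50 mM EPPS pH 8.5, 25 mM MgCl2. Ligated and unligated RNAs were separated by PAGE, barcoded by RT and deep sequenced; fraction ligated = ligated reads / total reads, relative activity = FL / FL of wild-type minF1 (0.76); sequencing FL correlated with PAGE (R2 = 0.98). Sequences are the DNA template of the ribozyme.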

In order of rising fraction ligated:
1. GAGACCGCAACTGAAAAGTTGTTATGAAATGGATGGGTTGTTTCTGCACGTAGAAGCAAAAGGC [ATGATGGAGTT G34T T37G A40G]  0.0011
2. GAGACCGCAACTGAAAAGTTGTTATCGAATGGTGGTTGAATTTCTGCACGTAGAAGCAAAAGGC [ATCGTGGTTGA]  0.00112
3. GAGACCGCAACTGAAAAGTTGTTATCGAAATGGAGGGTTGTTTCTGCACGTAGAAGCAAAAGGC [ATCGATGGGTT G34A T37G A40G]  0.00135
4. GAGACCGCAACTGAAAAGTTGTTATCGAATATGGGTTGAATTTCTGCACGTAGAAGCAAAAGGC [ATCGTATGTGA]  0.00154
5. GAGACCGCAACTGAAAAGTTGTTATCGAAATGGTGGGTTATTTCTGCACGTAGAAGCAAAAGGC [ATCGATGGGTT G34T T37G]  0.00156
6. GAGACCGCAACTGAAAAGTTGTTATGAATGGAGGGTTGAATTTCTGCACGTAGAAGCAAAAGGC [ATGAGGAGTGA A29T]  0.0018
7. GAGACCGCAACTGAAAAGTTGTTATGAAATGGATGGGTTATTTCTGCACGTAGAAGCAAAAGGC [ATGATGGAGTT G34T T37G]  0.00184
8. GAGACCGCAACTGAAAAGTTGTTATGAAATGAGGGTTGAATTTCTGCACGTAGAAGCAAAAGGC [ATGATGAGTGA]  0.00204
9. GAGACCGCAACTGAAAAGTTGTTATCGAATGGAGGGTTAATTTCTGCACGTAGAAGCAAAAGGC [ATCGTGGAGTA]  0.00217
10. GAGACCGCAACTGAAAAGTTGTTATCGAAATGGAGGGTTATTTCTGCACGTAGAAGCAAAAGGC [ATCGATGGGTT G34A T37G]  0.00243
11. GAGACCGCAACTGAAAAGTTGTTATCGAAATTGGGTTGAATTTCTGCACGTAGAAGCAAAAGGC [ATCGATTGTGA]  0.00257
12. GAGACCGCAACTGAAAAGTTGTTATGAAATGTGGGTTGAATTTCTGCACGTAGAAGCAAAAGGC [ATGATGTGTGA]  0.0027
13. GAGACCGCAACTGAAAAGTTGTTATCGATGATGGGTTGAATTTCTGCACGTAGAAGCAAAAGGC [ATCGGATGTGA A29T]  0.00285
14. GAGACCGCAACTGAAAAGTTGTTATGAATGGATGGGTTAATTTCTGCACGTAGAAGCAAAAGGC [ATGAGGATGTA A29T]  0.00295
15. GAGACCGCAACTGAAAAGTTGTTATGAAATGGAGGTTGAATTTCTGCACGTAGAAGCAAAAGGC [ATGATGGATGA]  0.00302
16. GAGACCGCAACTGAAAAGTTGTTATGAAAGGATGGGTTAATTTCTGCACGTAGAAGCAAAAGGC [ATGAGGATGTA]  0.00328
17. GAGACCGCAACTGAAAAGTTGTTATCGAGGATGGGTTGAATTTCTGCACGTAGAAGCAAAAGGC [ATCGGATGTGA A29G]  0.00359
18. GAGACCGCAACTGAAAAGTTGTTATGAAATGATGGTTGAATTTCTGCACGTAGAAGCAAAAGGC [ATGATGATTGA]  0.00379
19. GAGACCGCAACTGAAAAGTTGTTATCGAAGGATGGGTTAATTTCTGCACGTAGAAGCAAAAGGC [ATCGGGATGTA]  0.00428
20. GAGACCGCAACTGAAAAGTTGTTATGAAATATGGGTTGAATTTCTGCACGTAGAAGCAAAAGGC [ATGATATGTGA]  0.00429
21. GAGACCGCAACTGAAAAGTTGTTATGAAATGGTGGGTTAATTTCTGCACGTAGAAGCAAAAGGC [ATGATGGTGTA]  0.00485
22. GAGACCGCAACTGAAAAGTTGTTATCGAAGATGGGTTGAATTTCTGCACGTAGAAGCAAAAGGC [ATCGGATGTGA]  0.00494
23. GAGACCGCAACTGAAAAGTTGTTATCGAATGGAGGGTTGATTTCTGCACGTAGAAGCAAAAGGC [ATCGTGGAGTG]  0.00496
24. GAGACCGCAACTGAAAAGTTGTTATCGAAATGGGGTTGAATTTCTGCACGTAGAAGCAAAAGGC [ATCGATGGTGA]  0.00498
25. GAGACCGCAACTGAAAAGTTGTTATGAAAGGATGGTTGAATTTCTGCACGTAGAAGCAAAAGGC [ATGAGGATTGA]  0.00566
26. GAGACCGCAACTGAAAAGTTGTTATCGAATGGATGGTTAATTTCTGCACGTAGAAGCAAAAGGC [ATCGTGGAGTA G34T]  0.0058
27. GAGACCGCAACTGAAAAGTTGTTATGAATGGATGGTTGAATTTCTGCACGTAGAAGCAAAAGGC [ATGAGGATTGA A29T]  0.00582
28. GAGACCGCAACTGAAAAGTTGTTATGAAAGGATGGGTTGATTTCTGCACGTAGAAGCAAAAGGC [ATGAGGATGTG]  0.00619
29. GAGACCGCAACTGAAAAGTTGTTATGAAATGGTGGGTTGATTTCTGCACGTAGAAGCAAAAGGC [ATGATGGTGTG]  0.00658
30. GAGACCGCAACTGAAAAGTTGTTATGAATGGATGGGTTGATTTCTGCACGTAGAAGCAAAAGGC [ATGAGGATGTG A29T]  0.00971
31. GAGACCGCAACTGAAAAGTTGTTATGAAATGGATGGTTGATTTCTGCACGTAGAAGCAAAAGGC [ATGATGGAGTG G34T]  0.011
32. GAGACCGCAACTGAAAAGTTGTTATCGTGGATGGGTTGAATTTCTGCACGTAGAAGCAAAAGGC [ATCGGATGTGA A28T A29G]  0.012
33. GAGACCGCAACTGAAAAGTTGTTATCGAAGGATGGGTTGATTTCTGCACGTAGAAGCAAAAGGC [ATCGGGATGTG]  0.0285
34. GAGACCGCAACTGAAAAGTTGTTATCGATGGATGGGTTGATTTCTGCACGTAGAAGCAAAAGGC [ATCGGGATGTG A29T]  0.0354

Variants of: B2
Assay: as above
Settings: with F1*subA RNA substrate (template-directed ligation), 42 °C
Description: as §1

In order of rising fraction ligated:
1. GAGACCGCAACTGAAAAGTTGTAGTCAGAAATGGATGGGTTGAATTTCTGCACGTAGAAGCAAAAGGC [T23A A24G]  0.00909
2. GAGACCGCAACTGAAAAGTTGTACTCAGAAATGGATGGGTTGAATTTCTGCACGTAGAAGCAAAAGGC [T23A A24C]  0.0188
3. GAGACCGCAACTGAAAAGTTGTATTCAGAAATGGATGGGTTGAATTTCTGCACGTAGAAGCAAAAGGC [T23A A24T]  0.0331
4. GAGACCGCAACTGAAAAGTTGTAATCCGAAATGGATGGGTTGAATTTCTGCACGTAGAAGCAAAAGGC [T23A A27C]  0.0462
5. GAGACCGCAACTGAAAAGTTGTAATCAGCAATGGATGGGTTGAATTTCTGCACGTAGAAGCAAAAGGC [T23A A29C]  0.15
6. GAGACCGCAACTGAAAAGTTGTAATCAGAAATGGATGGGTTGAATTTCTGCACGTAGAAGCAAAAGGC [T23A]  0.215
7. GAGACCGCAACTGAAAAGTTGTAATCGGAAATGGATGGGTTGAATTTCTGCACGTAGAAGCAAAAGGC [T23A A27G]  0.234
8. GAGACCGCAACTGAAAAGTTGTAATCTGAAATGGATGGGTTGAATTTCTGCACGTAGAAGCAAAAGGC [T23A A27T]  0.488
